In paper PMC3491091:

Target: soybean trypsin inhibitor (soybean) (UniProt P01070)
Assay: SPR + ITC + AUC + fluorescence polarisation

α-chymotrypsin (enzyme) showed a stoichiometry N of 2.
